# Assay results taken from patent US12195558B2, “Targeted delivery system and methods of use therefor” (SANFORD BURNHAM PREBYS MEDICAL DISCOVERY INSTITUTE, priority 2015, dated 2025).
# Bridge positions count the residues as written; N and C are the ends. Ends that are not written are not given here.
# Columns and labels:
# p32 [1] = molecular target: T1, p32 (Homo sapiens, UniProt Q07021); assay: Fluorescence polarization assay with synthetic peptides on p32; type: binding; settings: for inhibition of binding of labeled TT1 to P32 by unlabeled peptide: competition, fluorescence polarization
# T1 construct: made in house; host or cells: E. coli Rosetta-gami-2 (Novagen)
# T1 sequence (Q07021 74-282): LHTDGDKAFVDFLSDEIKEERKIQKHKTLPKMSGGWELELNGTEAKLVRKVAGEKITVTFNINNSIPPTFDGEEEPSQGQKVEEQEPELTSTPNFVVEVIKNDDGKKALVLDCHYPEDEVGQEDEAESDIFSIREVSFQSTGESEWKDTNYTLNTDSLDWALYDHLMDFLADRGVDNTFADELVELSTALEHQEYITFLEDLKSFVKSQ
# Excerpt: (§1) FIGS. 4A and 4B are plots showing a comparison of the binding of LyP-1 (SEQ ID NO: 7; diamonds) and TT1 (SEQ ID NO: 3; squares) to p32 in a fluorescence polarization assay. […] NRP-1 was used as a control protein.
# FIG. 5 is a plot showing that P32-TT1 (CKRGARSTC; SEQ ID NO: 3) and LyP-1 (SEQ ID NO: 7) peptides competed for binding to the P32 protein. […] Squares: p32-TT1; Diamonds: LyP-1; X: RPARPAR peptide (SEQ ID NO: 14).
# (§2) An exemplary RGXRS (SEQ ID NO: 4) pentapeptide motif-containing peptide with the sequence CKRGARSTC (SEQ ID NO: 3) was designated as the […] and used it for further studies. Mutating any amino acid in the consensus motif of TT1 abolished the phage binding to p32. This new peptide conferred about 15-fold stronger phage binding to immobilized p32 protein than did the canonical LyP-1 peptide.
# p32 [2] = molecular target: T1, p32; assay: Binding of peptide-displaying T7 phage to p32-coated magnetic beads; settings: p32-coated magnetic beads
# Protocol: FIG. 10 is a bar graph showing that the p32 binding of the RGXR(S/T) motif (SEQ ID NOs: 4 and 5) in the exemplary TT1 peptide (SEQ ID NO: 3) was not dependent on the cyclic structure and compatible with flanking sequences. Phage clones displaying the indicated peptides were incubated in p32-coated magnetic microbeads. After washing to remove non-bound phage, specifically bound phage were quantified.
# Milligram quantities of recombinant His-tagged p32 protein were expressed in E. coli and coated onto Ni-NTA magnetic beads, and biopanning was performed using two T7 bacteriophage peptide libraries (cyclic Cx7C and linear X7 library).
# Variant peptide-encoding genomic DNA of phage was sequenced and analyzed for the presence of consensus motifs. After two rounds of selection, both linear and cyclic libraries converged to contain an RGXRS (SEQ ID NO: 4) pentapeptide motif (see FIG. 2B). The binding of RGXRS (SEQ ID NO: 4)-displaying phage to p32 was specific, as these phage bound to magnetic beads coated with p32 protein and not to beads coated with ligand-binding b1b2 domain of the cell and tissue penetration receptor NRP-1 or BSA (see FIG. 3).
# as §2
# [3] = test system: orthotopic MCF10CA1a breast tumor xenografts; assay: Tumor homing and penetration of peptide-conjugated nanoworms (NWs); type: in vivo, athymic nude mice
# Protocol: FIG. 12 is a fluorescent micrograph showing tumor homing of linear TT1-NWs. Tumor-bearing mice were intravenously injected with FAM-LinTT1-coated NWs (7.5 mg iron/kg) and allowed to circulate for 5 hours. The mice were perfused through the heart with PBS, and tumors and organs were collected and processed for fluorescence microscopy. The left panel is a representative confocal microscopy image from tumors in mice. […]
# FIG. 13 is a bar graph showing quantification of the homing of various peptide-coated NWs. […] Quantification of fluorescence was done with ImageJ software (available from the website of the United States National Institutes of Health). In addition to the tumors, NWs were detected in the liver and spleen, which non-specifically capture nanoparticles regardless of their peptide coating. […]
# FIG. 15 is a bar graph showing tumor accumulation of NWs coated with chimeric peptides consisting of a homing peptide and pro-apoptotic peptide. Quantification of NW fluorescence was done with ImageJ software. […]
# In vivo peptide homing. […] After 5-6 hours of NW circulation the mice were euthanized by cardiac perfusion with PBS under anesthesia, and tumors and organs were dissected and analyzed for particle homing.
# Immunofluorescence. […] The primary antibody was detected with Alexa 594-labeled goat anti-rat secondary antibody (1:1000; Molecular Probes). […]
# atherosclerotic plaques = assay: Homing to atherosclerotic plaques in ApoE null mice on high-fat diet; type: in vivo; settings: 100 mg FAM labeled peptide i.v., one hour
# Protocol: ApoE null mice that had been kept on a high-fat diet were intravenously injected with […] of the FAM labeled peptides. One hour later, the mice were perfused through the heart under anesthesia, and tissues were collected. The panels show accumulation of FAM labeled peptides visualized with UV excitation. The center two and right two panels show atherosclerotic aortas that were sectioned at the aortic root level and examined by confocal microscopy.
# orthotopic breast tumors = settings: systemically administered; cited from earlier work
# mitochondrial membranes = settings: significantly less than the concentration required to kill eukaryotic cells; cited from earlier work
# NRP-1 = NRP-1 (Homo sapiens, UniProt O14786); assay: Fluorescence polarization assay on NRP-1 (control protein); type: binding; settings: NRP-1 as control protein
# Excerpt: as §1
# NRP-1, sequence (O14786 22-923): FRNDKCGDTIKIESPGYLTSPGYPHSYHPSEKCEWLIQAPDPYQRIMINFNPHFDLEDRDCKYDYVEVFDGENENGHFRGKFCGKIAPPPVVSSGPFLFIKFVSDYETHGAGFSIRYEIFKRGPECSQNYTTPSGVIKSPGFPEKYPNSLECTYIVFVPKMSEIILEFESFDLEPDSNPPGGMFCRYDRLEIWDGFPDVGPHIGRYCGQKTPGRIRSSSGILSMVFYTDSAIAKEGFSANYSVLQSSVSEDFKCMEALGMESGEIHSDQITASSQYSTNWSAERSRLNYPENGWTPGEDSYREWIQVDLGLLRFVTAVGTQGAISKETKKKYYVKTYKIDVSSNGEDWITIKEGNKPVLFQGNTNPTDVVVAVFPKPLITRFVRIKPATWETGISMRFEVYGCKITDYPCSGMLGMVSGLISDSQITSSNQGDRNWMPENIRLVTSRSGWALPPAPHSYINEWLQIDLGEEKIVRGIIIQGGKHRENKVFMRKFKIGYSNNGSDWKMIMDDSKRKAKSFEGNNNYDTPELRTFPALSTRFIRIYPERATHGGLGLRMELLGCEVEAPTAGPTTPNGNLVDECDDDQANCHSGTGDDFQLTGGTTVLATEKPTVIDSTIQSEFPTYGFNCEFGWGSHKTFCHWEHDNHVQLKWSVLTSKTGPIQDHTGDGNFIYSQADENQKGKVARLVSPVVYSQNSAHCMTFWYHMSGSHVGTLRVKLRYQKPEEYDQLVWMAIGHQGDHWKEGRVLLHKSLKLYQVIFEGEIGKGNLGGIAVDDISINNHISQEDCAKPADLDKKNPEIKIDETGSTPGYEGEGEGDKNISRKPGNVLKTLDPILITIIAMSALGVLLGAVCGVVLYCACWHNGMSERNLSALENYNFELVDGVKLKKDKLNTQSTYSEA
substance,measurement,setting,value
AKRGARSTA [LinTT1],affinity for p32 (in words),p32 [1]; method not stated at the place,low affinity for the receptor
same,phage binding to p32 (in words),p32 [2]; listed as TT1 Peptide variant,retains the binding activity
same,phage binding to p32 (in words),p32 [2]; listed as TT1 variant,retained the binding activity
same,tumor homing of peptide-coated NWs (in words),"[3]; 7.5 mg iron/kg i.v., 5 hours circulation",most effective peptide in the nanoparticle context
"CGNKRTRGC (disulfide 1-9 (inferred)) [LyP-1, reference compound]",homing to and penetration into plaque tissue,atherosclerotic plaques,seen inside plaques
same,homing to and penetration of orthotopic breast tumors,orthotopic breast tumors,efficiently home to and penetrate orthotopic breast tumors in vivo
same,inhibition of binding of labeled TT1 to P32 by unlabeled peptide,p32 [1],could be inhibited
same,tumor homing and extravascular penetration of homing peptide-D[KLAKLAK]2 NWs (in words),[3]; homing peptide-D[KLAKLAK]2 chimeric peptide on NWs,more effective than the CGKRK
CRGDKGPDC [iRGD],homing to and penetration of orthotopic breast tumors,orthotopic breast tumors,efficiently home to and penetrate orthotopic breast tumors in vivo
"KLAKLAKKLAKLAK (also: D-amino acids, positions not given here) [D(KLAKLAK)2]",concentration inducing marked mitochondrial swelling,mitochondrial membranes,10 µM
RPARPAR [reference compound],inhibition of binding of labeled TT1 to P32 by unlabeled peptide,p32 [1],not
same,binding to NRP-1 in fluorescence polarization assay (in words),NRP-1,avidly bound to NRP-1
